T1: human CD30L expressed on B16 cells (human, UniProt P32971 1-234)
T1 sequence (looked up): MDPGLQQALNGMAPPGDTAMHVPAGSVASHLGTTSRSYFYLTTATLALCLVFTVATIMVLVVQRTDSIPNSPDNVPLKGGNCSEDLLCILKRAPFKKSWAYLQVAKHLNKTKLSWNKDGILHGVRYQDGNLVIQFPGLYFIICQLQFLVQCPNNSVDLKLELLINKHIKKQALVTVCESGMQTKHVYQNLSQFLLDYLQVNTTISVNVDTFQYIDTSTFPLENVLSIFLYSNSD

T2: cynomolgus CD30L expressed on HEK293 cells (cynomolgus, UniProt A0A7N9CVX7 1-234)
T2 sequence: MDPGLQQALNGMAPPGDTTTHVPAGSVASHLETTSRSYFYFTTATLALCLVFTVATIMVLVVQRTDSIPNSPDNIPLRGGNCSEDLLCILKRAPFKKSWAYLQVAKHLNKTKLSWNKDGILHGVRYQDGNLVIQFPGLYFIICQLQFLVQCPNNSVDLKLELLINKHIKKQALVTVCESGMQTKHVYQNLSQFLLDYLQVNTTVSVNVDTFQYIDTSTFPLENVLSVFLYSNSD

T3: recombinant human CD30L (human, UniProt P32971 63-234)
T3 construct: Purified recombinant protein of ELISA, BLI, Carterra and KinExA; also called rhCD30L; huCD30L
T3 sequence (looked up): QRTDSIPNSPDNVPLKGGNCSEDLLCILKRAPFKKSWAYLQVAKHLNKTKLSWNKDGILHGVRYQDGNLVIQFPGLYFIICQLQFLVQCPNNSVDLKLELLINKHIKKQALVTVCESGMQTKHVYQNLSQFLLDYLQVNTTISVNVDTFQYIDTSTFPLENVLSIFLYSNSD

T4: recombinant cynomolgus CD30L (cynomolgus, UniProt A0A7N9CVX7 63-234)
T4 construct: Purified recombinant protein; also called rcyCD30L; cyno CD30L
T4 sequence: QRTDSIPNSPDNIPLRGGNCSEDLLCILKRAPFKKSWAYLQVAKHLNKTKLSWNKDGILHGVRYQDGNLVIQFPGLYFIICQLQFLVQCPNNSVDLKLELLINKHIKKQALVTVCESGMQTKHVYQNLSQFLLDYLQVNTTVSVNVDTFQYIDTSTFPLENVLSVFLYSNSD

T5: CDH13 (human, UniProt P55290 139-693)
T5 construct: whole, on cells; also called hit #16
T5 sequence (looked up): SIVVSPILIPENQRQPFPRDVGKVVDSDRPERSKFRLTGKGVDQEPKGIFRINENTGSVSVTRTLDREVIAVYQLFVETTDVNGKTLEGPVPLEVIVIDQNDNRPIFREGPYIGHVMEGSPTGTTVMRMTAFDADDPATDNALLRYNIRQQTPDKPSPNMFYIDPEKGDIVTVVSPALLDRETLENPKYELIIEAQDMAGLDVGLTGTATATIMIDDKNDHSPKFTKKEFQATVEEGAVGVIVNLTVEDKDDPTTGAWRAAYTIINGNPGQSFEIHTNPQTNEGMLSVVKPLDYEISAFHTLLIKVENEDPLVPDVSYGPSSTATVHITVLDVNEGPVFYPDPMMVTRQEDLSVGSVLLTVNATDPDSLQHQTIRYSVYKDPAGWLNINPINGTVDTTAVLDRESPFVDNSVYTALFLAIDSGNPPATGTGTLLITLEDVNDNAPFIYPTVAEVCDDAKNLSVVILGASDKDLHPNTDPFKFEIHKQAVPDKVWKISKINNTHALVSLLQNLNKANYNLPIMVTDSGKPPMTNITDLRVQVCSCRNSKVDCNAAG

T6: recombinant human CD30L protein (human, UniProt P32971 63-234)
T6 construct: also called rhCD30L; huCD30L (ELISA)
T6 sequence (looked up): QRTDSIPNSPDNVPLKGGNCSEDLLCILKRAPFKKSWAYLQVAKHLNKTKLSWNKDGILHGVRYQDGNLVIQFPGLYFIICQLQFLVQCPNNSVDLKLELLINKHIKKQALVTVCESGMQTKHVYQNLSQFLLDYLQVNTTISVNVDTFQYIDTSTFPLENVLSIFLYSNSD

T7: human CD30L expressed on cells (human, UniProt P32971 1-234)
T7 construct: also called huCD30L; B16-huCD30L
T7 sequence: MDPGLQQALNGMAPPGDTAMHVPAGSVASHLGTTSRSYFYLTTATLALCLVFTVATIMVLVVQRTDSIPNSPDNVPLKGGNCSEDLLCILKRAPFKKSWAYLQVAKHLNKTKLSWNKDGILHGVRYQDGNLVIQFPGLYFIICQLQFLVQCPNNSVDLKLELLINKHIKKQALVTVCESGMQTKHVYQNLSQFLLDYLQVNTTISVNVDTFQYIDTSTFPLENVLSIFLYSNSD

T8: recombinant mouse CD30L (mouse, UniProt P32972 68-239)
T8 construct: Purified recombinant protein; also called rmCD30L
T8 sequence (looked up): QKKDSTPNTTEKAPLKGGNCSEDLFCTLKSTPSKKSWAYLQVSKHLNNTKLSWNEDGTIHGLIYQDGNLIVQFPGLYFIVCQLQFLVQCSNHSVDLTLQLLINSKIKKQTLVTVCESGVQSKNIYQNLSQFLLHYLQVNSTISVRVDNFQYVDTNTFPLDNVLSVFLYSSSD


Columns and labels:
[1] = target: T1, human CD30L expressed on B16 cells; assay: cell-based or functional assay
[2] = target: T2, cynomolgus CD30L expressed on HEK293 …; assay: cell-based or functional assay
recombinant human CD30L [3] = target: T3, recombinant human CD30L; assay: ELISA, binding to purified rhCD30L
[4] = target: T4, recombinant cynomolgus CD30L; assay: ELISA, binding to purified rcyCD30L
[5] = target: T1, human CD30L expressed on B16 cells; assay: flow cytometry, binding to B16-rhCD30L cells
[6] = target: T2, cynomolgus CD30L expressed on HEK293 …; assay: flow cytometry, binding to HEK293-cyCD30L cells
recombinant human CD30L [7] = target: T3, recombinant human CD30L; assay: ELISA, blocking of CD30-Fc on huCD30L; competitor CD30-Fc
[8] = target: T4, recombinant cynomolgus CD30L; assay: ELISA, blocking of CD30-Fc on rcyCD30L; competitor CD30-Fc
[9] = target: T1, human CD30L expressed on B16 cells; assay: flow cytometry, blocking of CD30-Fc on B16-huCD30L cells; competitor CD30-Fc
[10] = target: T2, cynomolgus CD30L expressed on HEK293 …; assay: flow cytometry, blocking of CD30-Fc on HEK293-cyCD30L cells; competitor CD30-Fc
CDH13 = target: T5, CDH13; assay: cell microarray, library and confirmation screens
[11] = target: T6, recombinant human CD30L protein; assay: ELISA, HuCD30L
[12] = target: T7, human CD30L expressed on cells; assay: flow cytometry, HuCD30L cells
recombinant human CD30L [13] = target: T3, recombinant human CD30L; assay: ELISA on recombinant protein
[14] = target: T4, recombinant cynomolgus CD30L; assay: ELISA on recombinant protein
recombinant mouse CD30L = target: T8, recombinant mouse CD30L; assay: ELISA on recombinant protein
recombinant human CD30L [15] = target: T3, recombinant human CD30L; assay: recombinant blocking ELISA; competitor CD30
recombinant human CD30L [16] = target: T3, recombinant human CD30L; assay: ELISA, binding to rhCD30L (OD 450 nm)
[17] = target: T1, human CD30L expressed on B16 cells; assay: flow cytometry on B16 cells expressing hCD30L
recombinant human CD30L [18] = target: T3, recombinant human CD30L; assay: BLI, CD30 association to CD30L held by captured IgG; competitor rhCD30
Experimental: Briefly, individual anti-human biosensors were loaded with purified IgG (normalized to 10 μg/mL) and a baseline was measured for each biosensor. Biosensors were saturated with biotin and with polyclonal hulgG and a baseline was measured. Loaded biosensors were then allowed to bind CD30L and the association rate was measured for the binding. Biosensors were moved to buffer wells to measure the dissociation rate.

[19] = target: T1, human CD30L expressed on B16 cells; assay: flow cytometry, binding to B16 cells expressing human CD30L (MFI)

Binder | rhCD30L (+) ELISA (recombinant human CD30L [13]) | rcyCD30L (+) ELISA [14] | rmCD30L (+) ELISA (recombinant mouse CD30L) | IC50 (recombinant human CD30L [15]) [pM] | EC50 (read off the curve) (recombinant human CD30L [16]) [pM] | hCD30L B16 (+) FLOW [17] | rhCD30L:rhCD30 Blocking (recombinant human CD30L [18]) | EC50 (read off the curve) [19] [pM] | also measured
anti-CD30L antibody clone 1 (antibody, V domains shown, also called clone 1 parental) VH: QVQLQESGPGLVKPSETLSLTCTVSGGSISGYYWSWIRQPPVKGLEWIGYIFYSGYTKYNPSLKSRVTISVDTSKNQFSLKLSSVTAADTAVYYCARDRWDFDYWGQGALVTVSS VL: AIQMTQSPSYLSASVGDRVTIACRASQGIRNNLGWYQQKPGKAPKLLIYAESSLQSGVPSRFSGSGSGTDFTLTISSLQPEDFATYYCLQDFNYPYTFGQGTKLEIK |  |  |  |  |  |  |  |  | Inhibition of IL-8 release in a dual cell assay (B16-huCD30L cells + K299 cells) IC50 [1]: 1430 pM; Inhibition of IL-8 release in a dual cell assay (HEK293-cyCD30L cells + K299 cells) IC50 [2]: 390 pM; EC50 (recombinant human CD30L [3]): 50 pM; EC50 [4]: 70 pM; EC50 [5]: 1110 pM; EC50 [6]: 670 pM; IC50 (recombinant human CD30L [7]): 2140 pM; IC50 [8]: 1580 pM; IC50 [9]: 1060 pM; IC50 [10]: 510 pM
anti-CD30L antibody clone 1 with IgG1 constant region SEQ ID NO: 502 (antibody, V domains shown, copies: 2 + 2) VH: QVQLQESGPGLVKPSETLSLTCTVSGGSISGYYWSWIRQPPVKGLEWIGYIFYSGYTKYNPSLKSRVTISVDTSKNQFSLKLSSVTAADTAVYYCARDRWDFDYWGQGALVTVSS VL: AIQMTQSPSYLSASVGDRVTIACRASQGIRNNLGWYQQKPGKAPKLLIYAESSLQSGVPSRFSGSGSGTDFTLTISSLQPEDFATYYCLQDFNYPYTFGQGTKLEIK |  |  |  |  |  |  |  |  | binding result (CDH13): no binding (tested: 5 µg/mL)
anti-CD30L antibody clone 1 germlined with IgG1 constant region SEQ ID NO: 502 (antibody, V domains shown, copies: 2 + 2) VH: QVQLQESGPGLVKPSETLSLTCTVSGGSISGYYWSWIRQPPGKGLEWIGYIFYSGYTKYNPSLKSRVTISVDTSKNQFSLKLSSVTAADTAVYYCARDRWDFDYWGQGTLVTVSS VL: AIQMTQSPSSLSASVGDRVTITCRASQGIRNNLGWYQQKPGKAPKLLIYAESSLQSGVPSRFSGSGSGTDFTLTISSLQPEDFATYYCLQDFNYPYTFGQGTKLEIK |  |  |  |  |  |  |  |  | binding result (CDH13): no binding (tested: 5 µg/mL)
anti-CD30L clone 59 (antibody, V domains shown) VH: QVQLVESGGGVVQPGRSLRLSCAASGFTFSIYGMHWVRQAPGKGLEWVAVIWYDGSNKYYVDSVKGRFTISRDNSKNSLYLQMNSLRAEDTAVYYCAREGNLFDYWGQGTLVTVSS VL: DIQMTQSPSTLSASVGDRVTITCRASQSISSWLAWYQQKPGKAPKLLIYKASSLESGVPSRFSGSGSGTEFTLTISSLKPDDFATYYCQQYKSYYTFGQGTKLEIK |  |  |  |  |  |  |  |  | OD [11]: 0.06 OD; MFI [12]: 9790 MFI
anti-CD30L antibody clone 2 (antibody, V domains shown, also called clone 2 parental) VH: EVQLVESGGGLVQPGRSLRLSCAASGFNFDDYAMHWVRQAPGKGLEWVSGISWRSGNIGYAGSVKGRFTISRDNAKNSLYLQMNSLRPEDSALYYCAKDKGIGFNWNYEGFDYWGQGTLVTVSS VL: DIQMTQSPSSLSASVGDRVTITCRASQGISNHLAWFQQKPGKAPKSLIYAASSLQSGVPSKFSGSGSGTDFTLTISSLQPEDFATYYCQQYVTYPLTFGGGTKVEIK |  |  |  |  |  |  |  |  | Inhibition of IL-8 release in a dual cell assay (B16-huCD30L cells + K299 cells) IC50 [1]: 810 pM; Inhibition of IL-8 release in a dual cell assay (HEK293-cyCD30L cells + K299 cells) IC50 [2]: 310 pM; EC50 (recombinant human CD30L [3]): 40 pM; EC50 [4]: 50 pM; EC50 [5]: 740 pM; EC50 [6]: 300 pM; IC50 (recombinant human CD30L [7]): 1350 pM; IC50 [8]: 1280 pM; IC50 [9]: 790 pM; IC50 [10]: 340 pM
anti-CD30L antibody clone 63 (antibody, V domains shown, purified recombinant IgG (held by anti-human biosensors); mouse strain #1) VH: EVQLVESGGGLVQPGGSLRLSCAASGFMFSSYSMNWVRQAPGKGLEWVSYISSSSSTIYDADSVKGRFTISRDDAKNSLYLQMNSLRDEDTAVYYCTREAYPGYYYNYMDVWGKGTTVTVSS VL: DIQMTQSPSSLSASVGDRVTITCRASQSISSRLAWYQQKPGKAPNLLIYKASNLESGVPSRFSGSGSGTEFTLTISSLQPDDFATYYCQQYNSYSRTFGQGTKVEIK | 1.87 | 0.724 | 0.046 | 3180 | ~100 | 6.07e+06 | 0.0592 | ~1000 | 
anti-CD30L antibody clone 64 (antibody, V domains shown, purified recombinant IgG (held by anti-human biosensors); mouse strain #1) VH: EVQLVESGGGLVQPGGSLRLSCAASGFTFSNYAMTWVRQAPGKGLEWVSAISGFGGSTYYADSVKGRFTISRDNSKNTLYLQMNSLRAEDTAVYYCAKDHDYYAFDYWGQGTLVTVSS VL: not shown | 2.04 | 0.951 | 0.049 | 3170 | ~100 | 5.67e+06 | 0.0633 | ~1000 | 
anti-CD30L antibody clone 65 (antibody, V domains shown, purified recombinant IgG (held by anti-human biosensors); mouse strain #1) VH: EVQLVESGGGLVQPGGSLKLSCAASGFTFSNYAMTWVRQAPGKGLEWVSAISGYGGSTYYAASVKGRFTISRDNSKNTLFLQMNSLRAEDTAVYYCAKDHDYYAFDYWGQGTLVPVSS VL: not shown | 1.97 | 1.38 | 0.047 | 3660 | ~100 | 6.91e+06 | 0.0522 | ~1000 | 

— patent US20240254246A1 (PROMETHEUS BIOSCIENCES, published 2024)
